B1: LINE1-mini (parent)
chain: GGCAGAGCUCAACACAGCGUGGCAAAGUGGCUGUGGCUAGACUGCC

Variants of: B1
Assay: self-cleavage, relative activity (ratio to wild type); higher = more cleavage; in vitro, sequencing; the parent is a self-cleaving ribozyme

Variant | self-cleavage
A39U A41G | 0.14
C23A U28A | 0.78
C13G A39G | 0.09
G19U C42G | 0.07
G36U C42U | 0.06
G36U C42A | 0.06
G7C U9G | 0.28
A11U G44A | 0.05
A39C C42A | 0.1
A12G G30C | 0.08
C13A C31G | 0.06
A11C A41G | 0.03
C13A A39G | 0.15
G17U C42G | 0.06
A12U U43G | 0.12
A12U U43A | 0.04
C3A U43G | 0.04
C23A U32G | 0.22
G7A G19C | 0.09
A14G U20G | 0.15
C15G C31A | 0.02
G1U C15U | 0.21
U32C G33C | 0.04
C3U C8U | 0.71

Variant | self-cleavage
C3A A12G | 0.12
A4U G21A | 0.48
G1C C18U | 0.05
G7C A26C | 0.6
A14G G27U | 0.42
U20G U38G | 0.02
C15A G33C | 0.06
G5C G44C | 0.04
G22U C23G | 2.27
C15A U32G | 0.06
C10A A26G | 0.12
C18U G22A | 1.76
U9C G19C | 0.05
G2U U38C | 0.05
A6C U34A | 0.05
G27U U43A | 0.17
A6G A12G | 0.03
A39C G44A | 0.08
A39G G44C | 0.09
G19C G44U | 0.15
C8A G44U | 0.43
A26U G36C | 0.13
A6G A11U | 0.02
A16U G17U | 0.03

Variant | self-cleavage
G29C G40C | 0.05
G36C C45G | 0.04
G44C | 0.36
A6U C46U | 0.75
U34A U38G | 0.06
C18A C42U | 0.13
U9G U32A | 0.12
G27A G40A | 0.18
C10A U28A | 0.04
C8G U38G | 0.32
G2U U43C | 0.06
A11G A12C | 0.02
G2U A41U | 0.08
A6C C15A | 0.1
G5A G21A | 0.25
A11G A25C | 0.03
A25C A26U | 0.68
A24U A25C | 1.63
G7A U32A | 0.13
G33U C42A | 0.13
G7C C31U | 0.05
G22U C31A | 0.2
G1U C10U | 0.08
G19C A26G | 0.27

Variant | self-cleavage
A12C G33U | 0.02
G2U A24C | 0.07
C15A G21A | 0.16
A16C G29A | 0.57
A16U G36C | 0.07
C15U A26C | 1.74
G17C C42U | 0.1
A12U G22A | 0.4
G5C G7U | 0.25
A14G C23A | 0.53
A6C A12C | 0.06
U38G | 0.03
A11U C23U | 0.1
G27U U28G | 1.08
G5U C13G | 0.23
C13A C46U | 0.08
G2U G7A | 0.07
C10U U32C | 0.1
C10U U32A | 0.08
C8U C15U | 0.25
G5C | 0.07
G5U U32A | 0.07
G5U U32C | 0.07
G5U U32G | 0.09

Variant | self-cleavage
C23U C37U | 0.04
C13U A25U | 0.29
C13A C15A | 0.08
G27A U43C | 0.37
G21U A39G | 0.08
C10U G30U | 0.59
G30C U34G | 0.1
A25U G44C | 0.29
G1C C45U | 0.15
G5C G21C | 0.04
A16U A39C | 0.08
G7U A12C | 0.02
U28G G35U | 0.09
C23U G29C | 0.52
U20A G35U | 0.08
A12U C18U | 0.53
G29C G44C | 0.29
G22U A26C | 1.53
A26U G30C | 1.31
G29A C45U | 1.67
A25G U28G | 0.57
C18U U43A | 0.06
G5C C37U | 0.09
A12G A24G | 0.03

Variant | self-cleavage
C3A A4U | 0.38
A26U G27U | 1.41
A26U A39U | 2.46
A25U A39C | 0.23
A6C G33A | 0.06
U20A A39C | 0.08
A6U C8U | 0.29
A6C U28C | 0.36
A16G G19A | 1.31
A24G U28G | 0.45
C13A A41U | 0.14
A25C C46G | 0.75
A4G A12C | 0.03
C23U A41U | 0.57
A4G A41C | 0.19
G5U G44C | 0.06
C3A C8U | 0.69
G19C A39U | 0.28
C3U G21C | 0.47
G2A G5A | 0.53
G21U G36C | 0.1
G1A C8A | 0.88
C13A U32C | 0.09
G22U A24C | 0.92

Variant | self-cleavage
A11C | 0.08
G5A C8G | 0.22
G22U G36C | 0.1
G7A C10G | 0.02
C10A A25U | 0.1
G30A U34C | 0.12
A6U G7C | 0.19
A12G A16G | 0.03
C10A U38G | 0.05
G1A U34C | 0.14
U20G G33U | 0.08
A12C C15G | 0.03
G2A G27C | 0.72
C3U A11C | 0.06
U20A U32G | 0.08
A16U G33U | 0.14
G2U G40U | 0.04
G2C U28G | 0.05
G27U G36U | 0.04
A6C A24U | 1.07
G5U G27C | 0.05
C23U G27A | 1.07
A16G G33A | 0.03

Source: the RNAGym collection of RNA variant scans (doi:10.7554/elife.90254)
